Measured values published in the supplement of paper PMC9170038.

Test system: MS2 coat protein
Test: apparent KD of MS2 coat protein; designed switch direction (-1 OFF switch, 1 ON switch): 1; higher = weaker reporter binding
In short: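 Designed RNA switches were transcribed on Illumina chips by stalled E. coli RNA polymerase and titrated with SNAP-549-labelled MS2 coat protein from 0.7 or 1.5 nM, doubling to 3 µM. Step length ran from 0.8–1.5 h at the lowest concentration to 10–20 min at the highest. The apparent KD is the median over clusters for each design, from curve-fitted normalised cluster fluorescence.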

[1] = Eterna round: R95, input ligand: FMN 200 uM
[2] = Eterna round: R95, input ligand: microRNA oligo, concentration not stated
[3] = Eterna round: R95, input ligand: none
[4] = input ligand: microRNA oligo, concentration not stated

| Sequence | apparent KD of MS2 coat protein [1] | apparent KD of MS2 coat protein [2] | apparent KD of MS2 coat protein [3] | apparent KD of MS2 coat protein (input ligand: FMN 200 uM) | apparent KD of MS2 coat protein [4] | apparent KD of MS2 coat protein (input ligand: none) |
| --- | --- | --- | --- | --- | --- | --- |
| AGUCCAGGCUGACCUGGACAAAAGCAUGUACAUGAGGAUCACCCAUGUCAUGUACAAGCUUUUUGCUCGUCUUAAAA [Mat - hsa-mir-208a - Mod of JL - D16] (puzzle: Sensor for hsa-mir-208a) | 701 nM | 14.3 nM | 637 nM |  |  |  |
| GGCUAGGAUAUCUGCAGGAUCACCGCGGAGAAGGAGCUAAGCUAGGAUAUCCGCAGGAUCACCGCGGAGAAGGAGCAUCAUCUC [pwkr ssNG3 DX 2xF5 +2xFMN.16] (Eterna round: R96, puzzle: Same State NG 3) |  |  |  | 135 nM | 123 nM | 429 nM |
| GAGGAACAUGAGGAUCACCCAUGUAGGAUGGGACAAGGAUAUGUAGAUAGCGGAGGAGAGACAGAAGGUGUAGGAA [JR_SS1_Sub053] (puzzle: Same State 1) | 354 nM | 431 nM | 483 nM |  |  |  |
| GUGGCCUAGGCACAGGAUAUGUUUCUCGUAACAUGAGGAUCACCCAUGUGCCUUUGAGAUUUUAUGCAGAAGGGUGCACGCCACG [JL Atiinbe mod 04] (Eterna round: R96, puzzle: Same State 2) |  |  |  | 21.1 nM | 214 nM | 425 nM |
| UCAAGCGUUUGGCUCGUCUUAUGUUUGGUACAUGAGGAUCACCCAUGUUAGGGACGAUCCAGUUAGAUGGAAUUUUG [JR_SHM208A_Sub036] (puzzle: Sensor for hsa-mir-208a) | 36.5 nM | 637 nM | 45.6 nM |  |  |  |
| GGUGCGAAAUAAGCCUACAUGAGGAUCACCCAUGUAUGUAGGCAGGAUAUCGUUUGCAAAGCAAACGAGAAGGGCUGACGCACC [Mat - Same State NG 3 - JL Mod - D50] (Eterna round: R96, puzzle: Same State NG 3) |  |  |  | 31.1 nM | 52.6 nM | 94.5 nM |
| GCUGCAUGGGCAGGAUAUGGGUCCAAAGCGCAAGUGCGCUUUGGUACAUGAGGAUCACCCAUGUCCCAGAAGGGCCCAAGCGGC [Inorgeesbi] (Eterna round: R96, puzzle: Same State NG 2) |  |  |  | 16.4 nM | 87.9 nM | 145 nM |
| UGUUUGUUGUGAGGAUAUACGUACACCUUACAUGAGGAUCACCCAUGUUGUUUCUUUGAUUGUUGGUAGAAGGCACUUGGUUAU [JR_SSNG2_Sub048] (Eterna round: R96, puzzle: Same State NG 2) |  |  |  | 324 nM | 123 nM | 208 nM |
| CCAACAUACAAUUUAAGAUCACAUGAGGAUCACCCAUGUAUGCAGGAUAUCAGCUCGAAUAGAGCUGAGAAGGGCAAUUUAAUU [SSNG3/1-A1] (Eterna round: R96, puzzle: Same State NG 3) |  |  |  | 94.7 nM | 127 nM | 262 nM |
| GGUAGGUUACUACCAAACAUGAGGAUCACCCAUGUUGAUGGGAAGGAUAUGGUACCUUUUAGGUACCAGAAGGUCUAAUCGAUC [NGss mod of JL's mod of Fisker 4] (Eterna round: R96, puzzle: Same State NG 3) |  |  |  | 120 nM | 115 nM | 166 nM |
| CGUCCGGCCUGUGCUGGCCGGUAGCUUGUACAUGAGGAUCACCCAUGUUCUUGUGCAGGCUUUUUGCUCGUCUUGUG [salish99_mir208a_016] (puzzle: Sensor for hsa-mir-208a) | 365 nM | 23.9 nM | 452 nM |  |  |  |
| CGUCCGGCCUGUGCUGGCCGGAAGCAUGUACAUGAGGAUCACCCAUGUUCAUGUGCAGGCUUUUUGCUCGUCUUGUG [salish99_mir208a_r3_006] (puzzle: Sensor for hsa-mir-208a) | 41.3 nM | 12.4 nM | 39.4 nM |  |  |  |
| UUCUCAUUUACAUGAGGAUCACCCAUGUUUUUUUGUCGGAAAUAGGAUAUAGGUCUCUCGUUUUACUAGAAGGAUUUCCUUAUU [JR_SSNG3_Sub089] (Eterna round: R96, puzzle: Same State NG 3) |  |  |  | 70.4 nM | 70.7 nM | 58.9 nM |
| UGAGGUGUAGCAGGAUAUGCCGUCAGUCACCCGGCAGAAGGGCUGAAAGCAUGCUCGCACAUGAGGAUCACCCAUGUCACAGUG [Eternabot solution 17] (Eterna round: R96, puzzle: Same State NG 1) |  |  |  | 48.9 nM | 37.7 nM | 44 nM |
| GAGUAGGACUUACAGGAUAUAUGGAGGUUGACAUGAGGAUCACCCAUGUCUGAGUUGGGAGGAGGAUAGAAGGGUAUGAGAGGCG [JR_SS2_Sub031] (puzzle: Same State 2) | 27.1 nM | 23.3 nM | 22.8 nM |  |  |  |
| UUGAAGAAUUAAGGAUAUCGAGUCGUCAGAUUUUACAUGAGGAUCACCCAUGUGGGUUGCGGUAUCGAGAAGGUAAAUUACAAG [JL JR Sub099 mod 6] (Eterna round: R96, puzzle: Same State NG 2) |  |  |  | 24.4 nM | 34.1 nM | 43.3 nM |

| Sequence | apparent KD of MS2 coat protein [1] | apparent KD of MS2 coat protein [2] | apparent KD of MS2 coat protein [3] | apparent KD of MS2 coat protein (input ligand: FMN 200 uM) | apparent KD of MS2 coat protein [4] | apparent KD of MS2 coat protein (input ligand: none) |
| --- | --- | --- | --- | --- | --- | --- |
| CACAUGAGGAUCACCCAUGUGAGGCGGCAAUAAAGCCGCGCACAGGAUAUAGCGCUAUGAAUGCGCUAGAAGGGUGAUUAGAAC [Reines] (Eterna round: R96, puzzle: Same State NG 3) |  |  |  | 240 nM | 59.9 nM | 36.5 nM |
| AAAAUGCGGGAAGGAUAUGGGAAAGGAAGUGUACCAGAAGGUCUCGCGGCCAAGGACAUGAGGAUCACCCAUGUUAACGCCCGA [PowerStrip SSNG 1.8] (Eterna round: R96, puzzle: Same State NG 1) |  |  |  | 204 nM | 43.4 nM | 40.8 nM |
| AGCUAUUAAUCAGGAUAUAGGGACAUGAGGAUCACCCAUGUAUACAUGAUGAAAUGUGGUCACCUCUAGAAGGGAUUACUAACA [SameState NG2 #42] (Eterna round: R96, puzzle: Same State NG 2) |  |  |  | 155 nM | 109 nM | 178 nM |
| AUUAAACAUGAGGAUCACCCAUGUCAACAAAGUCGAGGAUAUGGGCAUAUUAUCUUAUAACCAGAAGGCGAAUAAU [salish99_ss1_r3_086] (puzzle: Same State 1) |  | 155 nM |  |  |  |  |
| AAGAAACAUGAGGAUCACCCAUGUAAGAUAAACACAGGAUAUGCGAAUAAAAUAAAUAAAGCAGAAGGGUGAAGAA [Mat - Same State 1 - Tesla mod - D150] (Eterna round: R96, puzzle: Same State 1) |  |  |  |  | 38.9 nM |  |
| AAUUAAGAUCAAGGAUAUCACGUCGAUUAGACGUGAGAAGGUGAUCCAUACAUGAGGAUCACCCAUGUAUAACAUGAAUUAAUU [SSNG1/8-B2] (Eterna round: R96, puzzle: Same State NG 1) |  |  |  | 395 nM | 626 nM | 1580 nM |
| UAAGGACAUGAGGAUCACCCAUGUGCUUCAUAUGGAGAAUCUCAGGAUAUCCUGAGGAUCACCCAGGAGAAGGGAGAUCCGAGG (Eterna round: R96, puzzle: Same State NG 3) |  |  |  | 288 nM | 191 nM | 225 nM |
| AUAUAACAUGAGGAUCACCCAUGUCUCUAAAGUCGAGGAUAUGGGCAAAUAAUAUAAGAACCAGAAGGCGAAUUAU [SS1 Teenbexe 4] (puzzle: Same State 1) | 143 nM | 34.1 nM | 79.3 nM |  |  |  |
| GUAGCAUACCGAGGAUAUUCAUAUUACAUGAGGAUCACCCAUGUGGCCAGCAUUAGCUGGCCUUGGGAGAAGGCGGAAUGCUAC [Xeonanis - 20 Mod49] (Eterna round: R96, puzzle: Same State NG 2) |  |  |  | 110 nM | 623 nM | 1150 nM |
| UUCUCCUUUUUUUACAUGAGGAUCACCCAUGUUUUUCUUACGUAGGAUAUCGUUGUUUUUUUUUACGAGAAGGACGUAGUAAGU [JR_SSND3_Sub060] (Eterna round: R96, puzzle: Same State NG 3) |  |  |  | 31.5 nM | 25.8 nM | 36.2 nM |
| UAGUGCGUUAGAGGAUAUUCUAAAAAAAAAAAAAAGACAUGAGGAUCACCCAUGUAUGUACAUGGGAAGAAGGCUGAUGUGCUA [Omei SS(NG)2 B] (Eterna round: R96, puzzle: Same State NG 2) |  |  |  | 75.9 nM | 352 nM | 551 nM |
| AAACGACACACAGGAUAUCCGCCAUGCAGGCUCGGAGAAGGGUGUGAAACAUGAGGAUCACCCAUGUAGUCAAAAUAAUAAAGA [Arardixequ] (Eterna round: R96, puzzle: Same State NG 1) |  |  |  | 47 nM | 62.9 nM | 58.9 nM |
| UCUGCUGCCCAAGGAUAUCAGCGUGGUAUCCACAUGAGGAUCACCCAUGUAGGUCAGCACUACCCUGAGAAGGUGGGAAAAUAA [Eternabot solution 2] (Eterna round: R96, puzzle: Same State NG 2) |  |  |  | 14.4 nM | 10.6 nM | 15.1 nM |
| GCCAUCGUGUGAGGAUAUGGCACCGUUUCGGUGCCAGAAGGCAUGUCAAUUGACAUGAGGAUCACCCAUGUAUUAGCGAUGGCA [JL Fiskers NG1ss - 33 mod 3] (Eterna round: R96, puzzle: Same State NG 1) |  |  |  | 159 nM | 292 nM | 988 nM |
| UCUUGGUUUUUGCUCGUUUUUUGUGUUGAACAUGAGGAUCACCCAUGUAUUGUACGGUCCAAUUUGGUGGUAGUCCG [JMF 68] (puzzle: Sensor for hsa-mir-208a) | 40.4 nM | 29.6 nM | 46.9 nM |  |  |  |
